Data on 23 sequences can be found in the Immune Epitope Database (IEDB).

By IC50 is commonly meant the concentration that inhibits the measured activity by half.

Targets include HLA-A*02:01; HLA-A*02:02; HLA-A*02:03; HLA-A*02:06; HLA-A*68:02.
What all share (experiment): IEDB peptide-MHC binding, purified MHC/competitive/radioactivity; ≥ and ≤ were set here for values at or beyond the usual limits of such assays
Where [1] appears, read: source organism: Vaccinia virus WR.
Setting [2] is: source organism: Hepacivirus hominis.
The mark [3] stands for this setting: source organism: Influenza A virus.

Consider YLRGHTESI, for which the IC50 with HLA-A*02:01 (setting [1]) was 3.7 nM; in the experiment with HLA-A*02:02 (setting [1]), 0.21 nM; with HLA-A*02:03 (setting [1]) it was 0.18 nM; in the experiment with HLA-A*02:06 (setting [1]) it was 91 nM; with HLA-A*68:02 (setting [1]), 506 nM.
On the same counts, the results for YLRLYIILA are 190 nM, 8.3 nM, 52 nM, 4180 nM and 2720 nM.
Take YLSSVLLAL: the IC50 with HLA-A*02:01 (source organism: SARS-CoV1) turned out to be 0.55 nM; with HLA-A*02:02 (source organism: SARS-CoV1) it was 0.14 nM; with HLA-A*02:03 (source organism: SARS-CoV1), 0.31 nM; with HLA-A*02:06 (source organism: SARS-CoV1), 8.2 nM; with HLA-A*68:02 (source organism: SARS-CoV1), 10 nM.
As for YLYNKYSFKL, the IC50 in the experiment with HLA-A*02:01 (setting [1]) came to 0.078 nM; in the experiment with HLA-A*02:02 (setting [1]) it was 0.11 nM; with HLA-A*02:03 (setting [1]), 0.035 nM; with HLA-A*02:06 (setting [1]), 0.14 nM; in the experiment with HLA-A*68:02 (setting [1]), 4.8 nM.
With YLYTEYFLFL, the IC50 in the experiment with HLA-A*02:01 (setting [1]) is 0.069 nM; with HLA-A*02:02 (setting [1]), 0.085 nM; in the experiment with HLA-A*02:03 (setting [1]) it was 0.56 nM; with HLA-A*02:06 (setting [1]), 0.007 nM; with HLA-A*68:02 (setting [1]) it was 76 nM.
Regarding YMLFTKFFYL, the IC50 with HLA-A*02:01 (source organism: SARS-CoV1) was 5.1 nM; with HLA-A*02:02 (source organism: SARS-CoV1), 48 nM; with HLA-A*02:03 (source organism: SARS-CoV1), 46 nM; with HLA-A*02:06 (source organism: SARS-CoV1), 20 nM; with HLA-A*68:02 (source organism: SARS-CoV1), 9.9 nM.
Take YMLVLAEALI: the IC50 with HLA-A*02:01 (setting [2]) was 152 nM; with HLA-A*02:02 (setting [2]), 107 nM; with HLA-A*02:03 (setting [2]), 228 nM; with HLA-A*02:06 (setting [2]), 512 nM; with HLA-A*68:02 (setting [2]), 974 nM.
As to YMSNLFDIPL, the IC50 in the experiment with HLA-A*02:01 (setting [1]) is 18 nM; with HLA-A*02:02 (setting [1]) it was 19 nM; with HLA-A*02:03 (setting [1]), 10 nM; with HLA-A*02:06 (setting [1]) it was 127 nM; in the experiment with HLA-A*68:02 (setting [1]), 471 nM.
On the same counts, the results for YMVTDKTAYI are 4.8 nM, 0.23 nM, 0.28 nM, 6.1 nM and 1.5 nM.
Consider YNAELLVLL, for which the IC50 with HLA-A*02:01 (setting [3]) is 609 nM; in the experiment with HLA-A*02:02 (setting [3]), 118 nM; with HLA-A*02:03 (setting [3]) it was 1790 nM; with HLA-A*02:06 (setting [3]), 474 nM; in the experiment with HLA-A*68:02 (setting [3]), 44 nM.
As for YQCGHYTHI, the IC50 with HLA-A*02:01 (source organism: SARS-CoV1) worked out at 20 nM; with HLA-A*02:02 (source organism: SARS-CoV1) it was 72 nM; in the experiment with HLA-A*02:03 (source organism: SARS-CoV1) it was 15 nM; in the experiment with HLA-A*02:06 (source organism: SARS-CoV1) it was 9.2 nM; with HLA-A*68:02 (source organism: SARS-CoV1), 2920 nM.
Regarding YQSFLFWFL, the IC50 amounted to 0.76 nM with HLA-A*02:01 (setting [1]); 0.38 nM with HLA-A*02:02 (setting [1]); 2.5 nM with HLA-A*02:03 (setting [1]); 40 nM with HLA-A*02:06 (setting [1]); 87 nM with HLA-A*68:02 (setting [1]).
As to YSMAGNWAKV, the IC50 with HLA-A*02:01 (setting [2]) was found to be 175 nM; in the experiment with HLA-A*02:02 (setting [2]) it was 75 nM; with HLA-A*02:03 (setting [2]), 17 nM; with HLA-A*02:06 (setting [2]) it was 425 nM; with HLA-A*68:02 (setting [2]) it was 28 nM.
Turning to YTISSESLV, the IC50 in the experiment with HLA-A*02:01 (setting [1]) worked out at 1060 nM; with HLA-A*02:02 (setting [1]), 522 nM; with HLA-A*02:03 (setting [1]), 38 nM; with HLA-A*02:06 (setting [1]) it was 54 nM; with HLA-A*68:02 (setting [1]), 3.3 nM.
Consider YTLLGCWSFV, for which the IC50 with HLA-A*02:01 (setting [2]) was found to be 435 nM; with HLA-A*02:02 (setting [2]), 555 nM; with HLA-A*02:03 (setting [2]) it was 169 nM; with HLA-A*02:06 (setting [2]) it was 146 nM; with HLA-A*68:02 (setting [2]), 182 nM.
As for YTVEFDRDKV, the IC50 in the experiment with HLA-A*02:01 (setting [1]) amounted to 934 nM; in the experiment with HLA-A*02:02 (setting [1]) it was 83 nM; in the experiment with HLA-A*02:03 (setting [1]) it was 154 nM; with HLA-A*02:06 (setting [1]), 22 nM; in the experiment with HLA-A*68:02 (setting [1]), 4.5 nM.
Consider YVGDTSMMVI, for which the IC50 is 803 nM in the experiment with HLA-A*02:01 (setting [1]); 408 nM with HLA-A*02:02 (setting [1]); 220 nM with HLA-A*02:03 (setting [1]); 324 nM with HLA-A*02:06 (setting [1]); 72 nM with HLA-A*68:02 (setting [1]).
On the same counts, the results for YVHEGVSYEV are 83 nM, 13 nM, 71 nM, 9.1 nM and 14 nM.
For YVILKDPRI the same measures were 778 nM, 1550 nM, 203 nM, 12 nM and 847 nM.
On the same counts, the results for YVIPDELIDV are 23 nM, 18 nM, 14 nM, 12 nM and 350 nM.
As to YVSPTEMVDV, the IC50 was determined as 21 nM with HLA-A*02:01 (setting [1]); 63 nM with HLA-A*02:02 (setting [1]); 50 nM with HLA-A*02:03 (setting [1]); 5.2 nM with HLA-A*02:06 (setting [1]); 235 nM in the experiment with HLA-A*68:02 (setting [1]).
On the same counts, the results for YVSVMNFIPI are 127 nM, 341 nM, 152 nM, 0.11 nM and 55 nM.
As to YVVVHGYFT, the IC50 was 1070 nM with HLA-A*02:01 (source organism: SARS-CoV1); 342 nM in the experiment with HLA-A*02:02 (source organism: SARS-CoV1); 792 nM with HLA-A*02:03 (source organism: SARS-CoV1); 171 nM with HLA-A*02:06 (source organism: SARS-CoV1); 212 nM with HLA-A*68:02 (source organism: SARS-CoV1).
